Experimental data: US20240124553A1

Experiments:
Test in all cases: flow cytometry, transfected 293T cells
[1] = biological target: CHIKV E2-E1 envelope glycoproteins (strain S27), E2 mutant A33S (chikungunya virus strain S27) (UniProt Q8JUX5)
[2] = biological target: CHIKV E2-E1 envelope glycoproteins (strain S27), E2 mutant A78S (chikungunya virus strain S27) (UniProt Q8JUX5)
[3] = biological target: CHIKV E2-E1 envelope glycoproteins (strain S27), E2 mutant A81S (chikungunya virus strain S27) (UniProt Q8JUX5)
[4] = biological target: CHIKV E2-E1 envelope glycoproteins (strain S27), E2 mutant C125A (chikungunya virus strain S27) (UniProt Q8JUX5)
[5] = biological target: CHIKV E2-E1 envelope glycoproteins (strain S27), E2 mutant D117A (chikungunya virus strain S27) (UniProt Q8JUX5)
[6] = biological target: CHIKV E2-E1 envelope glycoproteins (strain S27), E2 mutant D43A (chikungunya virus strain S27) (UniProt Q8JUX5)
[7] = biological target: CHIKV E2-E1 envelope glycoproteins (strain S27), E2 mutant D71A (chikungunya virus strain S27) (UniProt Q8JUX5)
[8] = biological target: CHIKV E2-E1 envelope glycoproteins (strain S27), E2 mutant E40A (chikungunya virus strain S27) (UniProt Q8JUX5)
[9] = biological target: CHIKV E2-E1 envelope glycoproteins (strain S27), E2 mutant F100A (chikungunya virus strain S27) (UniProt Q8JUX5)
[10] = biological target: CHIKV E2-E1 envelope glycoproteins (strain S27), E2 mutant F115A (chikungunya virus strain S27) (UniProt Q8JUX5)
[11] = biological target: CHIKV E2-E1 envelope glycoproteins (strain S27), E2 mutant G57A (chikungunya virus strain S27) (UniProt Q8JUX5)
[12] = biological target: CHIKV E2-E1 envelope glycoproteins (strain S27), E2 mutant G79A (chikungunya virus strain S27) (UniProt Q8JUX5)
[13] = biological target: CHIKV E2-E1 envelope glycoproteins (strain S27), E2 mutant H123A (chikungunya virus strain S27) (UniProt Q8JUX5)
[14] = biological target: CHIKV E2-E1 envelope glycoproteins (strain S27), E2 mutant H127A (chikungunya virus strain S27) (UniProt Q8JUX5)
[15] = biological target: CHIKV E2-E1 envelope glycoproteins (strain S27), E2 mutant H131A (chikungunya virus strain S27) (UniProt Q8JUX5)
[16] = biological target: CHIKV E2-E1 envelope glycoproteins (strain S27), E2 mutant H73A (chikungunya virus strain S27) (UniProt Q8JUX5)
[17] = biological target: CHIKV E2-E1 envelope glycoproteins (strain S27), E2 mutant H99A (chikungunya virus strain S27) (UniProt Q8JUX5)
[18] = biological target: CHIKV E2-E1 envelope glycoproteins (strain S27), E2 mutant I101A (chikungunya virus strain S27) (UniProt Q8JUX5)
[19] = biological target: CHIKV E2-E1 envelope glycoproteins (strain S27), E2 mutant I37A (chikungunya virus strain S27) (UniProt Q8JUX5)
[20] = biological target: CHIKV E2-E1 envelope glycoproteins (strain S27), E2 mutant I48A (chikungunya virus strain S27) (UniProt Q8JUX5)
[21] = biological target: CHIKV E2-E1 envelope glycoproteins (strain S27), E2 mutant L67A (chikungunya virus strain S27) (UniProt Q8JUX5)
[22] = biological target: CHIKV E2-E1 envelope glycoproteins (strain S27), E2 mutant N39A (chikungunya virus strain S27) (UniProt Q8JUX5)
[23] = biological target: CHIKV E2-E1 envelope glycoproteins (strain S27), E2 mutant P128A (chikungunya virus strain S27) (UniProt Q8JUX5)
[24] = biological target: CHIKV E2-E1 envelope glycoproteins (strain S27), E2 mutant R36A (chikungunya virus strain S27) (UniProt Q8JUX5)
[25] = biological target: CHIKV E2-E1 envelope glycoproteins (strain S27), E2 mutant S51A (chikungunya virus strain S27) (UniProt Q8JUX5)
[26] = biological target: CHIKV E2-E1 envelope glycoproteins (strain S27), E2 mutant T126A (chikungunya virus strain S27) (UniProt Q8JUX5)
[27] = biological target: CHIKV E2-E1 envelope glycoproteins (strain S27), E2 mutant T42A (chikungunya virus strain S27) (UniProt Q8JUX5)
[28] = biological target: CHIKV E2-E1 envelope glycoproteins (strain S27), E2 mutant T65A (chikungunya virus strain S27) (UniProt Q8JUX5)
[29] = biological target: CHIKV E2-E1 envelope glycoproteins (strain S27), E2 mutant T87A (chikungunya virus strain S27) (UniProt Q8JUX5)
[30] = biological target: CHIKV E2-E1 envelope glycoproteins (strain S27), E2 mutant T94A (chikungunya virus strain S27) (UniProt Q8JUX5)
[31] = biological target: CHIKV E2-E1 envelope glycoproteins (strain S27), E2 mutant V113A (chikungunya virus strain S27) (UniProt Q8JUX5)
[32] = biological target: CHIKV E2-E1 envelope glycoproteins (strain S27), E2 mutant V85A (chikungunya virus strain S27) (UniProt Q8JUX5)
[33] = biological target: CHIKV E2-E1 envelope glycoproteins (strain S27), E2 mutant W64A (chikungunya virus strain S27) (UniProt Q8JUX5)

Substance	Binding Reactivity (% WT) [1]	Binding Reactivity (% WT) [2]	Binding Reactivity (% WT) [3]	Binding Reactivity (% WT) [4]	Binding Reactivity (% WT) [5]	Binding Reactivity (% WT) [6]	Binding Reactivity (% WT) [7]	Binding Reactivity (% WT) [8]	Binding Reactivity (% WT) [9]	Binding Reactivity (% WT) [11]	Binding Reactivity (% WT) [12]	Binding Reactivity (% WT) [13]	Binding Reactivity (% WT) [14]	Binding Reactivity (% WT) [15]	Binding Reactivity (% WT) [16]	Binding Reactivity (% WT) [17]	Binding Reactivity (% WT) [18]	Binding Reactivity (% WT) [19]	Binding Reactivity (% WT) [20]	Binding Reactivity (% WT) [21]	also measured
CHIKV mAb C9 (antibody)	86 % WT	84.1 % WT	86.6 % WT	0 % WT	74.4 % WT	11.1 % WT	91.8 % WT	107 % WT	34.2 % WT	109 % WT	81.4 % WT	53.6 % WT	92.4 % WT	24.4 % WT	89.6 % WT	57.4 % WT	26.6 % WT	30.4 % WT	10.7 % WT	60.9 % WT	Binding Reactivity (% WT) [10]: 4.3 % WT; Binding Reactivity (% WT) [22]: 108 % WT; Binding Reactivity (% WT) [23]: 112 % WT; Binding Reactivity (% WT) [24]: 75.4 % WT; Binding Reactivity (% WT) [25]: 85.3 % WT; Binding Reactivity (% WT) [26]: 106 % WT; Binding Reactivity (% WT) [27]: 102 % WT; Binding Reactivity (% WT) [28]: 71.1 % WT; Binding Reactivity (% WT) [29]: 20.7 % WT; Binding Reactivity (% WT) [30]: 116 % WT; Binding Reactivity (% WT) [31]: 81.8 % WT; Binding Reactivity (% WT) [32]: 77.8 % WT; Binding Reactivity (% WT) [33]: 60.6 % WT
CHIKV mAb CHKV-88 (antibody)	123 % WT	126 % WT	82.3 % WT	3.7 % WT	103 % WT	37.5 % WT	108 % WT	108 % WT	69.1 % WT	134 % WT	121 % WT	61.5 % WT	91 % WT	56.3 % WT	91.8 % WT	85.6 % WT	44.5 % WT	63.2 % WT	39.6 % WT	84.6 % WT	Binding Reactivity (% WT) [10]: 25.1 % WT; Binding Reactivity (% WT) [22]: 124 % WT; Binding Reactivity (% WT) [23]: 102 % WT; Binding Reactivity (% WT) [24]: 83.8 % WT; Binding Reactivity (% WT) [25]: 96.9 % WT; Binding Reactivity (% WT) [26]: 95.1 % WT; Binding Reactivity (% WT) [27]: 112 % WT; Binding Reactivity (% WT) [28]: 87.9 % WT; Binding Reactivity (% WT) [29]: 52.9 % WT; Binding Reactivity (% WT) [30]: 109 % WT; Binding Reactivity (% WT) [31]: 112 % WT; Binding Reactivity (% WT) [32]: 75.9 % WT; Binding Reactivity (% WT) [33]: 126 % WT
Mxra8-Fc (mouse Mxra8 extracellular domain fused to mouse IgG2b Fc) (Fc fusion)	85.3 % WT	106 % WT	85.2 % WT	-0.2 % WT	-0.3 % WT	36.2 % WT	-0.3 % WT	86.2 % WT	26.2 % WT	106 % WT	94.6 % WT	33.6 % WT	78 % WT	15.7 % WT	102 % WT	58.1 % WT	23.7 % WT	36.2 % WT	11.1 % WT	77.4 % WT	Binding Reactivity (% WT) [22]: 91.9 % WT; Binding Reactivity (% WT) [23]: 122 % WT; Binding Reactivity (% WT) [25]: 99.2 % WT; Binding Reactivity (% WT) [26]: 76 % WT; Binding Reactivity (% WT) [27]: 95.7 % WT; Binding Reactivity (% WT) [28]: 68.9 % WT; Binding Reactivity (% WT) [29]: 23.5 % WT; Binding Reactivity (% WT) [30]: 99.7 % WT; Binding Reactivity (% WT) [31]: 78 % WT; Binding Reactivity (% WT) [32]: 84.6 % WT; Binding Reactivity (% WT) [33]: 17.7 % WT
